# Data reported in PMC11435769, “Entrapment of Cyanase from Thermomyces lanuginosus Using Biomimetic Silica and Its Application for Cyanate Bioremediation” (Polymers, 2024).
# Tested on: N#CO
# Test: purified protein
# Type: biochemical, Thermomyces lanuginosus
# Settings: free enzyme, standard assay: co-substrate bicarbonate (0.2 mL of 15 mM NaHCO3 in 1 mL), 50 mM Tris-HCl pH 8, 60 °C
substance,measurement,value
TlCyn (Thermomyces lanuginosus),Km,440 µM
same,kcat,18400 s⁻¹
same,kcat/Km,4.19e+07 M⁻¹ s⁻¹
